Changes are numbered by the printed parent chain.

Assay [1] has as its target T1, Low Density Lipoprotein Receptor (LDLR), recombinant (UniProt P01130 22-788, limits assumed).
T1 construct: also called Recombinant LDLR
Nature of the assay: SPR multi-cycle kinetics, immobilized LDLR, high surfactant preparation (HBS-P+), 1:1 model. Here is the method:
The table shown in FIG. 23 illustrates LDLR binding data (SPR), using a high surfactant preparation. Recombinant LDLR was diluted in 10 mM acetate buffer pH 4.5 and amine coupled to a CM5 chip at 1000 RU. Peptides were diluted to 5 μM in running buffer (HBS-P+, 1 mM CaCl2) and serially diluted 1:3 for 5 total concentrations. […] Between cycles, the chip surface was regenerated with 3 injections of 50 mM NaOH/100 mM EDTA. Multi-Cycle Kinetics was performed on a Biacore Insight Evaluation Software and binding kinetics were analyzed with a 1:1 binding model.

Assay [2] addresses T1, Low Density Lipoprotein Receptor …. Nature of the assay: SPR multi-cycle kinetics, immobilized LDLR, low-surfactant preparation (HBS-P), peptide:DMPC complex against peptide alone. Here is the method: Recombinant LDLR was diluted in 10 mM acetate buffer pH 4.5 and amine coupled to a CM5 chip at 1000 RU. Peptides were diluted to 5 μM in running buffer (HBS-P, 1 mM CaCl2) and serially diluted 1:3 for 5 total concentrations. In a separate preparation, peptides were diluted to 1 μM in running buffer containing 25 μM DMPC and serially diluted 1:3 for 5 total concentrations in running buffer. Peptide: DMPC complexes were incubated for 1 hour prior to use. […] Between cycles, the chip surface was regenerated with 3 injections of 50 mM NaOH/100 mM EDTA. Multi-Cycle Kinetics was performed on a Biacore Insight Evaluation Software and binding kinetics were analyzed with a 1:1 binding model.

Assay [3] concerns the target ATP binding cassette subfamily A member 1 (ABCA1), endogenous in ARPE-19 cells (human, UniProt O95477 1-2261). Kind of assay: cell-based or functional assay.
Assay [4] addresses ABCA1, endogenous in J774 murine macrophage cells (murine, UniProt P41233 1-2261). Nature of the assay: cell-based or functional assay.

Chain of ATP binding cassette subfamily A member 1 (ABCA1), endogenous in ARPE-19 cells (O95477 whole entry): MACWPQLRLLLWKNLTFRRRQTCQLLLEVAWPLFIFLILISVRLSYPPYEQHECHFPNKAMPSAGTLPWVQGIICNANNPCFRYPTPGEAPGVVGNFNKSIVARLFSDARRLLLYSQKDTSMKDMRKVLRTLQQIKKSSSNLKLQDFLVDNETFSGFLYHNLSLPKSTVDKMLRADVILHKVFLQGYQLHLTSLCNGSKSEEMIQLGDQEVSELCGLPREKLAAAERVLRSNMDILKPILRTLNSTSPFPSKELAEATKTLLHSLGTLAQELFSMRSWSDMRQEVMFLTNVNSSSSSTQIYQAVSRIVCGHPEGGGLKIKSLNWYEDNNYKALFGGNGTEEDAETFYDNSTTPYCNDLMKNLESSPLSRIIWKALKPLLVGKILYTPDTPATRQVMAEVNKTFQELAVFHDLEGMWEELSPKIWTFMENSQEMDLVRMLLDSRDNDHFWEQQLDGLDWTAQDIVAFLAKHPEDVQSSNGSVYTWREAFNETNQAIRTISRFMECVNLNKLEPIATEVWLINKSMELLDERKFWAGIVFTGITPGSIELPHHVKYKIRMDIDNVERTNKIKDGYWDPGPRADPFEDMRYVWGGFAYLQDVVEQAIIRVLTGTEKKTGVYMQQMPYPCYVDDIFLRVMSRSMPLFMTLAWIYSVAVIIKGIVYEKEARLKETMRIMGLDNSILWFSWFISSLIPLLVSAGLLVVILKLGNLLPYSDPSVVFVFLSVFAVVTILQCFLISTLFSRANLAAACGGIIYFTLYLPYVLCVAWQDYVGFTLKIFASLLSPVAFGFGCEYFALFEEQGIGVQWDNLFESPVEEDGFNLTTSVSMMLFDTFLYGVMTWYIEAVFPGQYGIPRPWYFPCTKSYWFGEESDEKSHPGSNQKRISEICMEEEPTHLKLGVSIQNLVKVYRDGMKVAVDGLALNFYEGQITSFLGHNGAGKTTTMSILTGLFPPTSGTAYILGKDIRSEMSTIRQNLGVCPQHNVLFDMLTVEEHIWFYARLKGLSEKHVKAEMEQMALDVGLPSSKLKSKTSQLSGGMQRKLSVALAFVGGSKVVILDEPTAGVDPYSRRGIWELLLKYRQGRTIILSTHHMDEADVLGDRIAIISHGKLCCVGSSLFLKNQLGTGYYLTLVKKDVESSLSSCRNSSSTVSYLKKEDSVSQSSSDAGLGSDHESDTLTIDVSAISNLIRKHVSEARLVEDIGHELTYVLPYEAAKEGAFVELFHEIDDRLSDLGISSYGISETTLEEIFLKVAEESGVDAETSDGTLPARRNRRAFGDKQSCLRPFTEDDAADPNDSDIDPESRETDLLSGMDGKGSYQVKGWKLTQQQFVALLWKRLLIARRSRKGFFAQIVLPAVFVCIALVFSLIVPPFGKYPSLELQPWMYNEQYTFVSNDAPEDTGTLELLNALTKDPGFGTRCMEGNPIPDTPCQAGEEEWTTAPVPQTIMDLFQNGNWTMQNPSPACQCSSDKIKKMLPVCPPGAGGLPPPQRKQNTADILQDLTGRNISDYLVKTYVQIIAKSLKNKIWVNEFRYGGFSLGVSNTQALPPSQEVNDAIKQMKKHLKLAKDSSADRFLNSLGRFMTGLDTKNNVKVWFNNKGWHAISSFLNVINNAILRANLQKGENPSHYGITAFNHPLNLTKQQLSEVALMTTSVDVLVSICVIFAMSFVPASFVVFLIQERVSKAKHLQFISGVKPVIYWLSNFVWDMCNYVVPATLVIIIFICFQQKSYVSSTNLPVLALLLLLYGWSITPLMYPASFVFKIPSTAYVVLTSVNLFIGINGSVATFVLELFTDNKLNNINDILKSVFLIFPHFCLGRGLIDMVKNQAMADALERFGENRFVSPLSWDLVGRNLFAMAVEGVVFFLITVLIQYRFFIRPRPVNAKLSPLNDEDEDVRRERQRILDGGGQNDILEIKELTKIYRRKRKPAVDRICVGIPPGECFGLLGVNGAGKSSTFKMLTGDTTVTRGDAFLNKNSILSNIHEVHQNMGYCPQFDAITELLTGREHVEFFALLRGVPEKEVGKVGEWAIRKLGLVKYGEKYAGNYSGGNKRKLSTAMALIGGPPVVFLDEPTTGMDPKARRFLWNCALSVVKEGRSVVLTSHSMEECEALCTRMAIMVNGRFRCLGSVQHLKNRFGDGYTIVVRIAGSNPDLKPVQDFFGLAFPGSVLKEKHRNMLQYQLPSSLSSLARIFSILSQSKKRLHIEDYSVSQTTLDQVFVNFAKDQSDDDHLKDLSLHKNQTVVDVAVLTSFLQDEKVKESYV
Chain of ABCA1, endogenous in J774 murine macrophage cells (P41233 whole entry): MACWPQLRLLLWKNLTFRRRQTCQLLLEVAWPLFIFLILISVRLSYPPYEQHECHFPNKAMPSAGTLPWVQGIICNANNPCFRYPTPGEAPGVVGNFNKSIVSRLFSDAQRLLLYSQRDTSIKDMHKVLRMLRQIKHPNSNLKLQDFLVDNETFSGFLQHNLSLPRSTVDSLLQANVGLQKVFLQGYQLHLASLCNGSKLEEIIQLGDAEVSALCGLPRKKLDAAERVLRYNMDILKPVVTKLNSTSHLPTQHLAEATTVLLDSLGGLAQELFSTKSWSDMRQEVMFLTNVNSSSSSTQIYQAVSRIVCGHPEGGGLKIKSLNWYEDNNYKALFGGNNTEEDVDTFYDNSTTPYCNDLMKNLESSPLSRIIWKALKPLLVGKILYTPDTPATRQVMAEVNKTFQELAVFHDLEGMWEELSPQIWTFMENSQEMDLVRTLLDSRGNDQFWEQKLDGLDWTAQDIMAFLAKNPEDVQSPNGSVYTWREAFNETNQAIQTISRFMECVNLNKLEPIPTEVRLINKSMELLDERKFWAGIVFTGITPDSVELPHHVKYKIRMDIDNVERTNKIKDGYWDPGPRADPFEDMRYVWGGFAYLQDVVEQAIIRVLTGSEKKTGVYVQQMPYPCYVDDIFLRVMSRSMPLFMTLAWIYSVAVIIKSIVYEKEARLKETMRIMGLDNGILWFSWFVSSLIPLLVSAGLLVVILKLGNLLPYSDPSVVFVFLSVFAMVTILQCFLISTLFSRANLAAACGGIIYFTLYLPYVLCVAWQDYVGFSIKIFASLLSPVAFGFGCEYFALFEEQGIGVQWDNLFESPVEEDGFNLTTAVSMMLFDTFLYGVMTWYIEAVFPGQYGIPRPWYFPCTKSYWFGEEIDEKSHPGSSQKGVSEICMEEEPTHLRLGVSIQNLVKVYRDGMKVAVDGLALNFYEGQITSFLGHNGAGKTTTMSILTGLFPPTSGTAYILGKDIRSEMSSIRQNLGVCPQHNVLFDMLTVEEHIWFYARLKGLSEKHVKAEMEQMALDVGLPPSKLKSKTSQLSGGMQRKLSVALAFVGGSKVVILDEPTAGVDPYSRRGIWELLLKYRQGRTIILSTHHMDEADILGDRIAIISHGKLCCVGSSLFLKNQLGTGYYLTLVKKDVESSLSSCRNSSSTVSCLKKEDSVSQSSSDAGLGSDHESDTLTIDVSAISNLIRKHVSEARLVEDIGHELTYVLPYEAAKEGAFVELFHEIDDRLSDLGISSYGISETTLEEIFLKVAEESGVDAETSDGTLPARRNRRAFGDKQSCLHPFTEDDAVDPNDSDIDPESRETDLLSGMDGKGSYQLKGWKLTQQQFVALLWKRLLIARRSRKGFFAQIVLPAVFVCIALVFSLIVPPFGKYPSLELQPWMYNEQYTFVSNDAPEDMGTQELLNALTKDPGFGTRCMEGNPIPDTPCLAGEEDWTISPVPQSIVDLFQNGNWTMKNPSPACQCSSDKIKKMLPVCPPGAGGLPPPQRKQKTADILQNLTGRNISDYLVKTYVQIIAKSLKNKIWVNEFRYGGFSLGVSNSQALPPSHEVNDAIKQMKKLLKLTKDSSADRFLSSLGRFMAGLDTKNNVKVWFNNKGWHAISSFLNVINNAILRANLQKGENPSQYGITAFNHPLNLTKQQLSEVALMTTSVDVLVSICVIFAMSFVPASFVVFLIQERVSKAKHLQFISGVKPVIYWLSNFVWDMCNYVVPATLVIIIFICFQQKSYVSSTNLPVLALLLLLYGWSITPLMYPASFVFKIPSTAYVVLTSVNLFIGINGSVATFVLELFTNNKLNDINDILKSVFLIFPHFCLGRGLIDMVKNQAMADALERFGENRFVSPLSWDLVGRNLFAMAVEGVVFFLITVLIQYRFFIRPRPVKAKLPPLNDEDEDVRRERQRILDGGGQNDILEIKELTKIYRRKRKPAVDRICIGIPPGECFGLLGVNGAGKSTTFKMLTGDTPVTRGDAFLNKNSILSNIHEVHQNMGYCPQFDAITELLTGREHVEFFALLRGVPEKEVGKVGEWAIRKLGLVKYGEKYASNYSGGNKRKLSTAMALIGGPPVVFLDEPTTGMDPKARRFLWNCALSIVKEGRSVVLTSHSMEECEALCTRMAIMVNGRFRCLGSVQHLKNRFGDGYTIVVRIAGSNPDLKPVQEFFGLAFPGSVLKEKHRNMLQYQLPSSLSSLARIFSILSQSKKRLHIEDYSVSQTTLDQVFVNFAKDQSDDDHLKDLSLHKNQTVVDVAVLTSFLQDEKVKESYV

B1: T-065 (peptide)
peptide: LASHLRKLRKRLLRSLVSQYFQTVTDYGKDLM
On to B1, for which the equilibrium dissociation constant (Kd) (in general, a measure of binding affinity in units of concentration) in assay [1] is less than 10 µM. The “change in LDLR binding in the presence of DMPC lipid” value (“change in LDLR binding” for short) in assay [2] is greater than 2 fold.

B2: T-066 (peptide)
peptide: B1 peptide with S3R, L13A
In the case of B2, in assay [1], the dissociation constant (Kd) is less than 10 µM. The “change in LDLR binding” value in assay [2] was greater than 2 fold.

B3: T-087 (peptide)
peptide: DAWERFRALFKELADYFR
Consider B3, for which, in assay [3], the “EC50, membrane ABCA1 stability in ARPE-19 cells treated with mCRP (western blot)” value was determined as 4.6 µM. Besides, the “EC50, membrane ABCA1 stability in J774 cells (western blot of membrane ABCA1 after 8-Br-cAMP washout)” value in assay [4] was 1.51 µM.

B4: T-115 (peptide)
peptide: DHINKVQRKVTHEIERLFLGQSTEELRVRLASHLRKLRKRLLRDADDLQKRLAVYQA
As to B4, the Kd in assay [1] is less than 10 µM. In addition, in assay [2], the “change in LDLR binding” value was greater than 2 fold.

B5: T-040 (peptide)
peptide: HLRKLRKRLLRDGDKLQDRLAEYQARAKEAFDR
B5: the Kd in assay [1] is less than 10 µM.

B6: T-062 (peptide)
peptide: B5 peptide with Q17Y, Q24Y
As to B6, the equilibrium dissociation constant (Kd) in assay [1] was less than 10 µM.

B7: T-052 (peptide)
peptide: B5 peptide with D18K
In the case of B7, the Kd in assay [1] is less than 10 µM.

B8: T-055 (peptide)
peptide: B5 peptide with K28R
Turning to B8, the Kd in assay [1] is less than 10 µM.

B9: T-064 (peptide)
peptide: B5 peptide with G13A, K15D, D18K
For B9, the dissociation constant Kd in assay [1] is less than 10 µM.

B10: T-041 (peptide)
peptide: B5 peptide with K4R, K7R
On to B10, for which, in assay [1], the Kd is less than 10 µM.

B11: T-059 (peptide)
peptide: B5 peptide with R6V, L10F
On to B11, for which the dissociation constant (Kd) in assay [1] was less than 10 µM.

B12: T-113 (peptide)
peptide: WKDFGERVERALREQFEDLGQSTEELRVRLASHLRKLRKRLLRDADDLQKRLAVYQA
As for B12, in assay [1], the equilibrium dissociation constant (Kd) was less than 10 µM. For the same molecule, the “change in LDLR binding” value in assay [2] is greater than 2 fold.

B13: T-112 (peptide)
peptide: B12 peptide with W1Y, R13G, E14R, F16L, D18M
As to B13, in assay [1], the Kd was less than 10 µM. Also, the “change in LDLR binding” value in assay [2] is greater than 2 fold.

B14: T-114 (peptide)
peptide: B12 peptide with W1L, E9A
As for B14, the Kd in assay [1] is less than 10 µM. Further, the “change in LDLR binding” value in assay [2] was greater than 2 fold.

B15: T-048 (peptide)
peptide: LASHLRKLRKRLLRDGDKLQDRLAEYQARAKEAFDR
Consider B15, for which, in assay [1], the equilibrium dissociation constant (Kd) is less than 10 µM.

B16: T-049 (peptide)
peptide: B15 peptide with S3R, L13A
As for B16, the Kd in assay [1] was less than 10 µM.

B17: T-110 (peptide)
peptide: HLRKLRKRLLRSLVSQYRQTVTDYGKDL
Take B17: in assay [1], the Kd was less than 10 µM. Further, the “change in LDLR binding” value in assay [2] was greater than 2 fold.

B18: T-109 (peptide)
peptide: HLRKLRKRLLRSLVSQYFQTVTDYGKDL
On to B18, for which the dissociation constant (Kd) in assay [1] is less than 10 µM. Besides, the “change in LDLR binding” value in assay [2] was greater than 2 fold.

B19: T-111 (peptide)
peptide: HLRKLVKRLLRSLVSQYRQTVTDYGEDL
For B19, in assay [1], the equilibrium dissociation constant (Kd) is less than 10 µM. In addition, the “change in LDLR binding” value in assay [2] was greater than 2 fold.

B20: T-069 (peptide)
peptide: VRGRLVQYRGEVQAMLGQSTEELRVRLASHLRKLRKRLLRDADDLQKRLAVYQA
On to B20, for which the dissociation constant (Kd) in assay [1] is less than 10 µM.

B21: T-046 (peptide)
peptide: LASHLRKLRKRLLRDADDLQKRLAVYQAGAREGAER
As for B21, the Kd in assay [1] is less than 10 µM.

B22: T-047 (peptide)
peptide: B21 peptide with S3R, L13A
B22: the Kd in assay [1] is less than 10 µM.

B23: T-070 (peptide)
peptide: LVQYRGEVQAMLGQSTEELRVRLASHLRKLRKRLLRDADDLQKRLAVYQA
For the molecule B23, in assay [2], the “change in LDLR binding” value is greater than 2 fold.

B24: T-117 (peptide)
peptide: RSGADALESALKELKRFIREWTLGQSTEELRVRLASHLRKLRKRLLRDADDLQKRLAVYQA
For the molecule B24, in assay [2], the “change in LDLR binding” value was greater than 2 fold.

B25: T-116 (peptide)
peptide: DAWERFRALFKELADYFRLGQSTEELRVRLASHLRKLRKRLLRDADDLQKRLAVYQA
Regarding B25, the Kd in assay [1] is less than 10 µM. Moreover, in assay [2], the “change in LDLR binding” value was greater than 2 fold.

B26: T-101 (peptide)
peptide: RSGADALESALKELKRFIREWT
For the molecule B26, the “EC50, membrane ABCA1 stability in ARPE-19 cells treated with mCRP (western blot)” value in assay [3] is 3.5 µM. Besides, the “EC50, membrane ABCA1 stability in J774 cells (western blot of membrane ABCA1 after 8-Br-cAMP washout)” value in assay [4] was 3.7 µM.

B27: T-068 (peptide)
peptide: MEDVRGRLVQYRGEVQAMLGQSTEELRVRLASHLRKLRKRLLRDADDLQKRLAVYQA
For the molecule B27, the Kd in assay [1] was less than 10 µM. For the same molecule, the “change in LDLR binding” value in assay [2] is greater than 2 fold.

These data come from patent US20260115250A1 (CHARACTER BIOSCIENCES, published 2026).
